The source of these data is paper PMC12455474, “Single‐Molecule Protein Profiling Using Nanopores and Dimeric Aptamer‐Modified DNA Carriers”.

Series [1] has as its target PDGF-BB (human, UniProt P01127 82-190). Briefly: single-molecule nanopore (carrier dimerization, biphasic Hill fit); apparent sandwich Kd; 200 pM carrier; Carriers (200 pM total) incubated with protein at 37 °C for 2 h; nanopore measurement in 100 mM KCl, 10 mM Tris-EDTA pH 8.0, -300 mV. Conditions: protein: recombinant; chain copies: 2; 2 identical carriers per protein dimer; first 12 nt pair with carrier overhang.

Series [2] concerns the target human alpha-thrombin (human, UniProt P00734;P00734 328-363;364-622). Kind of series: single-molecule nanopore (carrier dimerization, biphasic Hill fit); apparent sandwich Kd; 100 pM of each carrier; hook effect at high thrombin; Carriers (200 pM total) incubated with protein at 37 °C for 2 h; nanopore measurement in 100 mM KCl, 10 mM Tris-EDTA pH 8.0, -300 mV.
The target in series [3] is VEGF-165 (human, UniProt P15692-4 27-191). Briefly: single-molecule nanopore (carrier dimerization, biphasic Hill fit); apparent sandwich Kd; 200 pM carrier; Carriers (200 pM total) incubated with protein at 37 °C for 2 h; nanopore measurement in 100 mM KCl, 10 mM Tris-EDTA pH 8.0, -300 mV. To be noted: protein: recombinant; chain copies: 2; 2 identical carriers per protein dimer; first 12 nt pair with carrier overhang.
Sequence of VEGF-165 (P15692 other isoform, or with tags, fused parts or gaps): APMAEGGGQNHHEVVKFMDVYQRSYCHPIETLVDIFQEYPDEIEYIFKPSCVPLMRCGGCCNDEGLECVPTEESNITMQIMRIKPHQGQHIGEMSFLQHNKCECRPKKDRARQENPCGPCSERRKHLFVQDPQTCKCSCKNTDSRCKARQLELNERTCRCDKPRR

Sequence of PDGF-BB (P01127 82-190): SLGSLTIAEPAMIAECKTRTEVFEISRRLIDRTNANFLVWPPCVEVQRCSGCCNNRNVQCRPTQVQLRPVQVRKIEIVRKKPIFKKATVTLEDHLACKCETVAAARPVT

B1: PDGF probe carrier (structured_DNA)
DNA: GGGCGGCGACCTTTTTTTCACAGGCTACGGCACGTAGAGCATCACCATGATCCTGTG
modifications: 5' phosphate, ligated to carrier
With B1, in series [1], the Kd is approximately 1.8 pM.

B2: HD1 carrier + HD22 carrier (thrombin probes 1 and 2) (structured_DNA)
DNA 1: GGGCGGCGACCTTTTTTTGGTTGGTGTGGTTGG
DNA 2: GGGCGGCGACCTTTTTTTAGTCCGTGGTAGGGCAGGTTGGGGTGACT
modifications: 5' phosphate on probes, ligated to carrier
With B2, the Kd in series [2] is approximately 9.1 pM.

B3: VEGF probe (V7t1) carrier (structured_DNA)
DNA: GGGCGGCGACCTTTTTTTTGTGGGGGTGGACGGGCCGGGTAGA
modifications: 5' phosphate, ligated to carrier
In the case of B3, in series [3], the Kd was approximately 0.3 pM.
